Experimental data from the RNAGym collection of RNA variant scans (doi:10.7554/elife.80360).

B1: HDV Ribozyme (parent)
chain: GGCCGGCAUGGUCCCAGCCUCCUCGCUGGCGCCGGCUGGGCAACAUUCCGAGGGGACCGUCCCCUCGGUAAUGGCGAAUGGGACCCA

Variants of: B1
Experiment: self-cleavage, relative activity (ratio to wild type); higher = more cleavage; co-transcriptional
G11U A43C showed a self-cleavage of 0.0594. In the case of G11A A16G, the self-cleavage is reported as 0.323. With G11A A16C the self-cleavage was 0.35. Variant G11A G74U has a self-cleavage of 0.123. Work on G11A G74A yielded a self-cleavage of 0.0769. Work on G10U U23C yielded a self-cleavage of 0.62. Work on G10U U23A yielded a self-cleavage of 0.604. G10U U23G gave a self-cleavage of 0.0791. In the case of G11U C30A, the self-cleavage is reported as 0.128. G10U G11U showed a self-cleavage of 0.344. With G10U G11C the self-cleavage was 0.237. For G11U A78G, the self-cleavage was 0.106. For G11U A78C, the self-cleavage was 0.02. G11A G73C gave a self-cleavage of 0.0252. Variant G11A G73A has a self-cleavage of 0.124. With G11A G73U the self-cleavage was 0.0769. With G10U U12G the self-cleavage was 0.172. With G10U U12C the self-cleavage was 0.0755. For G10U U12A, the self-cleavage was 0.0831. For G10U U46C, the self-cleavage was 0.352. For G10U U46G, the self-cleavage was 0.597. In the case of G11C G35C, the self-cleavage is reported as 0.151. G10U U69G gave a self-cleavage of 0.815. G10U U69C gave a self-cleavage of 0.656. Variant G11A G80C has a self-cleavage of 0.158. Work on G11A G80A yielded a self-cleavage of 0.197. With G11C G29A the self-cleavage was 0. G11C U47G gave a self-cleavage of 0.383. With G11C U47C the self-cleavage was 0.453. Variant G11A C62U has a self-cleavage of 0.354. Work on G11A C62A yielded a self-cleavage of 0.352. Work on G11C G39A yielded a self-cleavage of 0.264. With G11C G39C the self-cleavage was 0.0489. With G11A A77U the self-cleavage was 0.109. Variant G11C C36A has a self-cleavage of 0.0536. Work on G11C C58A yielded a self-cleavage of 0.378. G11C C58U showed a self-cleavage of 0.242. Variant G11C G74U has a self-cleavage of 0.0963. G11C G74C gave a self-cleavage of 0. For G11C U60G, the self-cleavage was 0.256. With G11C U60C the self-cleavage was 0.511. Variant G11C U60A has a self-cleavage of 0.0831. Work on G11A G59C yielded a self-cleavage of 0.381. Variant G11A G59U has a self-cleavage of 0.408. Variant G11C A70U has a self-cleavage of 0.399. Work on G11C A71C yielded a self-cleavage of 0.306. G11C A71U gave a self-cleavage of 0.252. G10U U27A showed a self-cleavage of 0.642. For G10U U27G, the self-cleavage was 0.465. G10U G50C gave a self-cleavage of 0.817. In the case of G10U G50A, the self-cleavage is reported as 0.62. G11A C15G gave a self-cleavage of 0.138. Variant G11U A71G has a self-cleavage of 0.302. In the case of G11U A71U, the self-cleavage is reported as 0.158. Work on G11U C62G yielded a self-cleavage of 0.151. Work on G11U C62A yielded a self-cleavage of 0.487. For G11C G59C, the self-cleavage was 0.415. Variant G11C G59U has a self-cleavage of 0.35. G11C C62A showed a self-cleavage of 0.475. Work on G11U A51G yielded a self-cleavage of 0.415. With G11U C57U the self-cleavage was 0.282. G11C C75G gave a self-cleavage of 0.133. Work on G11C C75A yielded a self-cleavage of 0.0536. For G11U A87U, the self-cleavage was 0.199. Variant G11C A83U has a self-cleavage of 0.119. In the case of G11A U47C, the self-cleavage is reported as 0.475. G11A U47G gave a self-cleavage of 0.58. Variant G10U G54U has a self-cleavage of 0.865. In the case of G11C A16C, the self-cleavage is reported as 0.95. G11A C30G showed a self-cleavage of 0.0225. In the case of G11A C30A, the self-cleavage is reported as 0.106. G11U C22A showed a self-cleavage of 0.0179. For G11U C22U, the self-cleavage was 0.103. Work on G11U C22G yielded a self-cleavage of 0. For G11U C24A, the self-cleavage was 0.112. For G10U G53U, the self-cleavage was 0.699. Work on G10U G53C yielded a self-cleavage of 0.773. G11A C26U showed a self-cleavage of 1.12. In the case of G11C G38C, the self-cleavage is reported as 0.0755. Work on G11C U72A yielded a self-cleavage of 0.0875. With G11A A42U the self-cleavage was 0.158. G11U A45G gave a self-cleavage of 0.587. G11U A45C showed a self-cleavage of 0.0841. In the case of G11A G25U, the self-cleavage is reported as 0.0801. G11A G25C showed a self-cleavage of 0.0906. With G11A C41A the self-cleavage was 0.381. With G11A C41G the self-cleavage was 0.188. Work on G11A C41U yielded a self-cleavage of 0.396. G11U C32A showed a self-cleavage of 0.0545. Work on G11A G38C yielded a self-cleavage of 0.0911. For G11A G38A, the self-cleavage was 0.102. For G11C G54C, the self-cleavage was 0.291. With G11C G54A the self-cleavage was 0.277. Variant G11C A42G has a self-cleavage of 0.161. For G11C A42U, the self-cleavage was 0.0536. G11C C41G gave a self-cleavage of 0.712. Variant G11C C41U has a self-cleavage of 0.0831. For G11C C33A, the self-cleavage was 0.0346. Work on G11C C33G yielded a self-cleavage of 0.0396. G11C C33U gave a self-cleavage of 0.256. For G11A C19A, the self-cleavage was 0.0811. G11A A70C gave a self-cleavage of 0.175. G11C C48G showed a self-cleavage of 0.399. In the case of G11C C48U, the self-cleavage is reported as 0.119. In the case of G11A C44G, the self-cleavage is reported as 0. G11A C44U gave a self-cleavage of 0.0723. Work on G10U G28A yielded a self-cleavage of 0.0791. In the case of G10U G38C, the self-cleavage is reported as 0.058. Work on G10U G38A yielded a self-cleavage of 0.103. Work on G10U G55U yielded a self-cleavage of 0.787. With G10U G55A the self-cleavage was 0.893. Work on G10U U37G yielded a self-cleavage of 0.0978. Work on G11C C63G yielded a self-cleavage of 0.434. Work on G11C C63A yielded a self-cleavage of 0.314. Work on G11C A51C yielded a self-cleavage of 0.35. With G11A C49G the self-cleavage was 0.156. Variant G11C G81A has a self-cleavage of 0. Work on G10U U72G yielded a self-cleavage of 0.407. In the case of G10U U60A, the self-cleavage is reported as 0.635. With G11A G17A the self-cleavage was 0.544. In the case of G11A G17C, the self-cleavage is reported as 0.113. Variant G11A G17U has a self-cleavage of 0.251. For G11U C36U, the self-cleavage was 0.138. Variant G11U C36G has a self-cleavage of 0.0615. For G11U A83C, the self-cleavage was 0.119. G11A A56U gave a self-cleavage of 0.487. G10U G82A showed a self-cleavage of 0.241. G11A A87G gave a self-cleavage of 0.502. G11A showed a self-cleavage of 0.42. G11C showed a self-cleavage of 0.314. Work on G11U yielded a self-cleavage of 0.366. In the case of G11A C61A, the self-cleavage is reported as 0.379. Variant G11C A77G has a self-cleavage of 0.138. G11C A77U showed a self-cleavage of 0.0462. In the case of G11A C13A, the self-cleavage is reported as 0.0791. With G11C U23A the self-cleavage was 0.465. Variant G11C G40A has a self-cleavage of 0.208. G11C G40C gave a self-cleavage of 0.0475. G11C C21A showed a self-cleavage of 0.0755. Work on G11A C58U yielded a self-cleavage of 0.322. Variant G11A C58G has a self-cleavage of 0.415. G11A C58A showed a self-cleavage of 0.554. G11C G17A showed a self-cleavage of 0.231. Variant G11C G17C has a self-cleavage of 0.0536. With G11A G52C the self-cleavage was 0.521. G11A G52U showed a self-cleavage of 0.548. Work on G11A A83C yielded a self-cleavage of 0.0707. Variant G11C C84A has a self-cleavage of 0.458. Variant G11C U20G has a self-cleavage of 0. With G11C U20A the self-cleavage was 0.0978. Work on G11A C63U yielded a self-cleavage of 0.376. In the case of G11U C13A, the self-cleavage is reported as 0.197. In the case of G11U C13G, the self-cleavage is reported as 0.0831. With G10U U47C the self-cleavage was 0.499. Variant G10U U47A has a self-cleavage of 0.514. With G11A U46A the self-cleavage was 0.148. G11A U46G gave a self-cleavage of 0.128. Variant G11A C86U has a self-cleavage of 0.338. With G11A G67U the self-cleavage was 0.237. G11A U12G gave a self-cleavage of 0.0875. G11A U12C showed a self-cleavage of 0.0415. G11A U12A showed a self-cleavage of 0.0831. With G10U G17A the self-cleavage was 0.704. In the case of G10U G17U, the self-cleavage is reported as 0.487. With G10U G52A the self-cleavage was 0.878. In the case of G10U G52U, the self-cleavage is reported as 0.891. For G11C U37G, the self-cleavage was 0.101.
